Experimental data published in patent publication US20260042834A1 (HBM ALPHA THERAPEUTICS, published 2026).
Substitutions are numbered along the chain they refer to.

T1: corticotropin-releasing hormone (CRH) peptide (human and mouse (same sequence), not fully specified)
T1 peptide: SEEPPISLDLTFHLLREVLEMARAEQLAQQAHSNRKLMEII

T2: CRH (CT-Biotin) (human and mouse (same sequence), biotin on an added C-terminal K (CRH-K-Biotin))
T2 construct: also called Peptide 4 (CRH-Biotin)
T2 peptide: T1 peptide

T3: CRH (NT-Biotin) (human and mouse (same sequence), not fully specified; biotin at the N-terminus)
T3 peptide: T1 peptide

B1: PR302064 (antibody, human IgG1, kappa, V domains shown)
VH: EMQLVESGGGLVKPGGSLRLSCAASGFTFSNYWMNWVRQAPGKGLEWVAEIRLKSNNYATHYAESVKGRFTISRDDSKSTVYLQMNSLKTEDTAVYYCTVGTLVYWGQGTLVTVSS
VL: DIVLTQSPDSLAVSLGERATINCRASQSVSTSTYNYMHWFQQKPGQPPKLLIKFASNLESGVPDRFSGSGSGTDFTLTISSLQAEDTAVYYCQHSWEIPYTFGQGTKLEIKR
notes: humanized variant of PR301777
B2: PR302048 (antibody, human IgG1, kappa, V domains shown)
VH: B1 VH with M2V, K13Q, R19K, P41S, A49G, S79N, V81A, V100R
VL: DIQLTQSPSSLSASVGDRVTITCRASQSVSTSTYNYMHWFQQKPGKAPKLLIKFASNLESGVPSRFSGSGSGTDFTLTISSLQPEDTATYYCQHSWEIPYTFGQGTKLEIKR
notes: humanized variant of PR301777
B3: PR302069 (antibody, human IgG1, kappa, V domains shown)
VH: B1 VH
VL: B2 VL
notes: humanized variant of PR301777
B4: PR005656 (antibody, human IgG1, kappa, V domains shown)
VH: EVQLVESGGVLVQPGGSLRLSCAASGFTFSSYWMTWVRQAPGKGLEWVANIKQEGSEKYYVDSVKGRFTISRDNAKNSLFLQMNSLRAEDTAVYYCARTLIFDYWGQGTLVTVSS
VL: DIVMTQSPLSLPVTPGEPASISCRSSQSLLHSTGYNSLEWYLQKPGQSPQLLIYLGSNRASGVPDRFSGSGSGTDFTLKISRVEAEDVGIYYCMQTLQTPITFGQGTRLEIKR
notes: PTM-removal variant of PR004290
B5: PR006147 (antibody, human IgG1, kappa, V domains shown)
VH: B4 VH with E54D, G55A
VL: B4 VL with N36H
notes: as for B4
B6: PR006142 (antibody, human IgG1, kappa, V domains shown)
VH: B4 VH
VL: B4 VL with N36D
notes: as for B4
B7: PR005658 (antibody, human IgG1, kappa, V domains shown)
VH: B4 VH with E54D
VL: B4 VL with N36Q
notes: as for B4
B8: PR005662 (antibody, human IgG1, kappa, V domains shown)
VH: B4 VH with E54D, G55A
VL: B4 VL with N36Q
notes: as for B4
B9: PR005660 (antibody, human IgG1, kappa, V domains shown)
VH: B4 VH
VL: B4 VL with N36Q
notes: as for B4
B10: PR006144 (antibody, human IgG1, kappa, V domains shown)
VH: B4 VH
VL: B4 VL with S37P
notes: as for B4
B11: PR006146 (antibody, human IgG1, kappa, V domains shown)
VH: B4 VH with E54D, G55A
VL: B4 VL with N36D
notes: as for B4

Biological target: T1, corticotropin-releasing hormone (CRH) …
Assay: cell-based or functional assay

hCRHR1 Luciferase Reporter Assay IC50 [pM] | mCrhr1 Luciferase Reporter Assay IC50 [pM] | Binder
989 | 4920 | B1

Biological target: T2, CRH (CT-Biotin)
Assay: ELISA, biotinylated CRH on streptavidin plate
Method: (§1) Streptavidin (Thermo, Cat: 21125) was diluted in PBS to a concentration of 2 μg/ml. 100 μl of diluted streptavidin was added per well to ELISA microplates, and the plates were incubated overnight at 4° C. […] 100 μL of 3,3′,5,5′-tetramethylbenzidine (TMB) substrate (Biopanda, Cat: TMB-S-003) was added, and the plates were incubated at room temperature for 15 minutes. 100 μL of ELISA stopping solution (Solarbio, Cat #: C1058) was added to terminate the reaction, and the optical density at 450 nm (OD450 nm) was determined by an ELISA plate reader (Molecular Devices, Spectra max 384 plus).

EC50 [pM] | Binder
22 | B1
24 | B2
16 | B3

Biological target: T3, CRH (NT-Biotin)
Assay: ELISA, biotinylated CRH on streptavidin plate
Method: as §1

EC50 [pM] | Binder
62 | B1
43 | B2
61 | B3

Biological target: T1, corticotropin-releasing hormone (CRH) …
Assay: cell-based or functional assay
Remark: another data set of the same source

hCRHR1 Luciferase Reporter Assay IC50 [pM] | mCrhr1 Luciferase Reporter Assay IC50 [pM] | Binder
531 | 2390 | B1
6660 | 33300 | B2
1540 | 4400 | B3

Biological target: T2, CRH (CT-Biotin)
Assay: ELISA, biotinylated CRH on streptavidin plate
Remark: another data set of the same source
Method: as §1

EC50 [pM] | Binder
33 | B4
27 | B5
46 | B6
44 | B7
52 | B8
51 | B9
32 | B10
24 | B11

Biological target: T3, CRH (NT-Biotin)
Assay: ELISA, biotinylated CRH on streptavidin plate
Remark: another data set of the same source
Method: as §1

EC50 [pM] | Binder
26 | B4
23 | B5
48 | B6
26 | B7
23 | B8
33 | B9
33 | B10
25 | B11

Biological target: T1, corticotropin-releasing hormone (CRH) …
Assay: cell-based or functional assay
Remark: another data set of the same source

hCRHR1 Luciferase Reporter Assay IC50 [pM] | mCrhr1 Luciferase Reporter Assay IC50 [pM] | Binder
1740 | 4260 | B4
12100 | 39900 | B5
4400 |  | B6
16200 | 29700 | B7
15800 | 42400 | B8
10300 | 29000 | B9
1200 | 3600 | B10
4890 | 18000 | B11
